From the nanobody polyreactivity screen of Harvey et al. (2022)

Experiment: yeast display, Sf9 membrane polyspecificity reagent, FACS + sequencing; frameworks hold sequencing errors
Method in brief: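 Sorting gates, low and high (top ~1%), were placed on anti-HA fluorescence to track expression and on streptavidin fluorescence to track reagent binding. A clone's polyreactivity label is taken from the gate it came out of. The reagent was 10% biotinylated, detergent-solubilized Sf9 membrane, applied for 1 hour at 4 °C to galactose-induced yeast display cells.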

QVQLVESGGGLVQAGGSLRLSCAASGITFQYYDMGWYRQAPGKEREFVAAISWRSGRTYYADSVKGRFTISRDNAKNTVYLQMNSLKPDDTAVYYCTAALYGVTTDMDYWGQGTQVTVSS
polyreactivity (PSR sort gate): high polyreactivity

QVQLVESGGGLVQAGGSIRLSCAASGRTFNYYAMGWYRQAPGKERELVAAIDSDGNTYYADSVKGRFTISRDNAKNTVYLQMNSLKPDDTAVYYCAADTHVNPNYDYWGQGTQVTVSS
polyreactivity (PSR sort gate): low polyreactivity

QVQLVESGGGLVQAGGSLRLSCAASGLTFYRYAMGLYRQAPGKERELVAGITRRGGSTYYADSVKGRFTISRDNAKNTVYLQMNSLKPEDTSVYYCNVDGISSSYPELDYWGQGTQVTVSS
polyreactivity (PSR sort gate): low polyreactivity

QVQLVESGGGLVQAGGSLRLSCAASGSTFTRNPLGWYRQAPGKERELVATISRSGGSTYYADSVKGRFTISRDNAKNTVYLQMNSLKPEDTAVYYCARPYQYYKFYSHDYWGQGTQVTVSS
polyreactivity (PSR sort gate): high polyreactivity

QVQLVESGGGLVQAGGSLRLSCAASGIIVPNAMGWYRQAPGKERELVAVITSGGSTYYADSVKGRFTISRDNAKNTVYLQMNSLKPEDTAVYYCNKDYAAIDRYDSWGQGTQVTVSS
polyreactivity (PSR sort gate): low polyreactivity

PVQLVESGGGLVQAGGSLRLSCAASGNAMGWYRQAPGKERELVASINRSGGRTYYADSVKGRFTISRDNAKNTVYLQMNSLKPEDTAVYYCAARPHYDSDYWGQGTQVTVSS
polyreactivity (PSR sort gate): low polyreactivity

QVQLVESAGGLVQAGCSLRLSCAASGSPFGYYAMGWYRQAPGKVRELVAAISRSGVSTYYADSVKGRFTISRDNAKNTFYLQMNSLKPEDTAVYYCDRVRSTPGSYNRFYYWGQGTQVTVSS
polyreactivity (PSR sort gate): high polyreactivity

QVQLVESGGGLLQAGGSLRLSCAASGSTFRGNALGWYRQAPGKVRELVAAINSSGGRTYYADSVKGRFTISRDNAKNTVYLQMNSLKPEDTAVNYCAARGRRTGDYDYWGQGTQVTVSS
polyreactivity (PSR sort gate): high polyreactivity

QVQLQESGGGMVQAGGSLRLSCAASGYISWADYMVWYRQAPGKERELVAGIGYGSTTYYADSVKGRFTISRANAKNTAYLQMNSLKPEDTAVYYCAVGWYRDTAYKYWGQGTQVTVSS
polyreactivity (PSR sort gate): low polyreactivity

QVQLVESGGGLVQAGGSLRLSCAASGSTLATNAMGWYRQAPGKERELVAYADSVKGRFTISRDNAKNTVYLQMNSLNPEDTAVYYCNVVFRYAYGVYYTPEFYYWGQGTQVTVSS
polyreactivity (PSR sort gate): low polyreactivity

QVQLVESGGGLVQAGGSLRLSCAASGRIFYGYAMGWYRQAPGKERELVAAITSGSRTNYADSVKGRFTISRDNAKNTVYLQMNSLKPEDTAVYYCHSRYGSYLYSLVHNTRYDYWGQGTQVTVSS
polyreactivity (PSR sort gate): low polyreactivity

QVQLVESGGGLVQAGGSLRLSCAASGFTFGDYAMGWYRQAPGIERELVAAIRSGGSTNYADSVKGRFTISRDNAKNTVYLQMNSLNPEDTAVYYCAAEWPHGQGAWSFFCRDSWGQGTQVTVSS
polyreactivity (PSR sort gate): low polyreactivity

QGQLVESGGGLVQAGGSIRLSCAASGSTTFYAMGWYRQAPGKEWELVATISSSAGSTYYADSVKGRFTISRDNAKNTVYLQMNSLKPEDTAFYYCAKAAYGNSYTSDYWGQGTQVTVSS
polyreactivity (PSR sort gate): low polyreactivity

QVQLVESGGGLVQAGGSLRLSCAASGFTFGAYAMGWYRQAPGKERELVASISWSGGSTYYADSVKGRFTISRDNAKNTVYLQLNSLKPEDTAVYYCNKDFVYPDDDGLFDYWGQGTQVTVSS
polyreactivity (PSR sort gate): low polyreactivity

QVQLVESVRGLVQAGGTLRLSCAPSGGIFWVYAMGWYRQAPGKERELVAAISNSDTSTSYADSVKGRFTISRVNAKNTVYLQMNSLKPEDTAVYSCNADSPSLSGDYWGQGTQVTVSS
polyreactivity (PSR sort gate): low polyreactivity

QVQLVESGGGLVQAGGSLRLSCAASGFIFGYYTMGWYRQAPGKERELVAAISSRGGSTYYADSVKGRFTISRDNAKNTVYLQMNSLKPEDTAVYYCAKRSTYTGSWWERGYWGQGTQVTVSS
polyreactivity (PSR sort gate): high polyreactivity

QVQLVESGGGLVQAGGSLRLSCAASGRIFPFNAMGWYRQAPGKERELVAAITSSGGRTYYADSVKGRFTISRDNAKNTVYLQMNSLKPEDTAVYYCAATLVRRARSGPMGYWGQGTQVTVSS
polyreactivity (PSR sort gate): high polyreactivity

QVQLVESGGGLVQAGGSLRLSCAASGRIFYHNTMGWYRQAPGKERELVAAITTSGSTYYADSVKGRFTISRDNAKNSVYLQMNSLKPEDTSVYYCAARALRWFNYWGQGTQVTVSS
polyreactivity (PSR sort gate): high polyreactivity

QVQLVESGGGLVQAGGSLRLSCAASGRIVWGYAMGWYTPAPGKERDLVATITRGGSTNYADSVKGRFTISRDNAKNTVYLQMNSLKPEDTAVYYCARDWGKSEYDYWGQGTQVTVSS
polyreactivity (PSR sort gate): high polyreactivity

QVQLVESGGGLVQAGGSLRLSCAASGLILNYYTMGWYRQAPGKERELVATISSSTGSTYYADSVKGRFTISRDNAKNTVYLQMNSLKPEDTAVYYCASDHWSYWQIYDYWGQGTQVTVSS
polyreactivity (PSR sort gate): low polyreactivity

QVQLVESGGGLVQAGGSLRLSCAASGSIFIGYAMGWYRQSPGKERELVAAINDSGDRTYYADSVKGRFTISRDNAKNTVYLQMNSLKPEDTAVYYCAADLVSLDPEYDYWGQGTQVTVSS
polyreactivity (PSR sort gate): low polyreactivity

QVQLVESGGGLVQAGGSLRLSCAASGFTFNRNAMGWYRQAPGKERELVAAISWSGGSTYYADSVKGRFTLSRDNAKNTVYLQMNSLKPEETAVYYCAKGYRRVYGPFYYWGQGTQVTVSS
polyreactivity (PSR sort gate): low polyreactivity

QVQLVESGGGLVQAGGSLRLSCAASGFIFHRYAMGWYRQAPGKERELVAAISRRGGSTYYADSVKGRFTISRDNAKNTVYLQMNSLKPEDTAVYYCARTVGDRTLLESDSWGQGTQVTVSS
polyreactivity (PSR sort gate): high polyreactivity

QVQLVESGGGLVQAGGSLRLSCAASGFTFAANAMGWYRQAPGKERELVAAISSDSTYADSVKGRFTISRDNAKNTVYLQMNSLKPEDTAVYYCAKDRYIVNSPGLDYWGQGTQVTVSS
polyreactivity (PSR sort gate): low polyreactivity

QVQLVESGGGLVQAGGSLRLSCAASGITFTSYVMGWYRQAPGKERELVAAISRSGGSSTYYADSVKGRFTISRDNAKNTVYLQMNSLKPEDTAVYYCAADSPYTGGANVYWGQGTQVTVSS
polyreactivity (PSR sort gate): high polyreactivity

QVQLVESGGGLVQAGGSLRLSCAASGRIFYQNAMGWYRQAPGKERELVADISSGGSTYYADSVKGRFTISRDNAKNTVYLQMNSLKPEDTAVYYCNTPSGPGTVGSYRRKWYGYWGQGTQVTVSS
polyreactivity (PSR sort gate): low polyreactivity

QVQLVESGGGLVQAGGSLRLSSAASGRTFSAYAMGWYRQAPGKERELVARITSVDSTNYADSVKGRFTISRDNAKNTVYLQMNSLKPEDTAVYYCNVVNEHQSDFVVPFDYNHWGQGTQVTVSS
polyreactivity (PSR sort gate): low polyreactivity

QVQLVESGGGLVQAGGSLRLSCAASGITFYVNAMGWYRQAPGKERELVAAISRSGGSTYYADSVKGRFTISRDNAKNTVYLQMNSLKPEDTAVYYCNKEDYGLYPYYVSVGYDYWGQGTQVTVSS
polyreactivity (PSR sort gate): low polyreactivity

QVQLVESGGGIVQAGGSLRLSCAASGSTFAANAMGWYRPAPGKERELVAAITSGGGSTYYADSVKGRFTISRDNAKNTVYLQMNSLKPEDTAVYYCNAADWLETQVDLDYWGQGTQVTVSS
polyreactivity (PSR sort gate): low polyreactivity

QVQLVESGGGLVQAGGSLRLSCASSGTFHKYAMGWYRQAPGKERELVASISRSGGSTSYADSVKGRFTISRDNAKNNVYLQMNSLKPEDTAVYYCNTPWGAYKYDYWGQGTEVTVSS
polyreactivity (PSR sort gate): high polyreactivity

QVQLVESGGGLVQAGCSLRLSCAASGTIFWYYAMGWYRQAPGKERELVAAISSGGSTYYADSVKGRFTISRDNAKNTVYLQMNSLKPEDTAVYYCNVRLRKKIQNSKYDYWGQGTQVTVSS
polyreactivity (PSR sort gate): high polyreactivity

QVQLVESGGGLVQAGGSLRLSCAASGRIFGPYAMGWYRPAPGKERELVAVISLSGGRTYYADSVKGRFTISRDNAKNTVYLQMNSLKPEDTAVYYCAAARIYVGRRFDFWGQGTQVTVSS
polyreactivity (PSR sort gate): high polyreactivity

HVQLQETGGGLVQAGGCLSCTASGTIFGQGDMGWYRPAPGKERELVATINDGASTYYADSVKGRFTISRDKAKNTVYLQKNSLKPDDTAVNYCAVFTDITTYFGYWGQGTQVTVSS
polyreactivity (PSR sort gate): low polyreactivity

QVQLVESGGGLVQAGGSLRLSCAASKESINAMGWYRQAPGKERELVAAIGWSGSSTYYADSVKGRFTISRDNAKNTVYLQMNSLKPEDTAVYYCAADTTTGDRGFDYWGQGTQVTVSS
polyreactivity (PSR sort gate): high polyreactivity

QVQLVESGGGLVQAGGSIRLSCAASGRIFGAYAIGWYRQAPGKERELVADIRTTGSTNYADSVKGRFTISRDNAKNTVYLQMNSLKPEDTAVYYCAARWRSRRFGSGFEYWGQGTQVTVSS
polyreactivity (PSR sort gate): high polyreactivity

QVQLVESGGGLVQAGGSLRLSCAASGSIFKYYTMGWSRQAPGKERELVAAINSSGGSTYYADSVKGRFTISRYNAKNTVYLQMYSLKPEDTAVYYCIAVTSRRWRYELDYLGQGTQVTVSS
polyreactivity (PSR sort gate): high polyreactivity

QVQLVESGGGLVQAGGSLRLSCAASGLTFGYYDMGRYRQAPGKERELVAAITSGGTTNYADSVKGRFTISRDNAKNTVYLQMNSQKPEDNAVYYCNADYYSRIVGVRIYDYWGQGTQVTVSS
polyreactivity (PSR sort gate): low polyreactivity

QVQLVESGGGLVQAGGSLRLSCAASGYTFSGYAMGWYRQAPGKERELVAAITSSGGTTYYADSVKGRFTISRDNAKNTVYLQMNSLKPEDTAVYYCNAYYSHYGDTEDYYWGQGTQVTVSS
polyreactivity (PSR sort gate): high polyreactivity

QVQLVESGGGLVQAGGSHRISCAASGRTFARYVMGWYRQAPGKERELVAAISRSGGTYYADSVKGRFTISRDNAKNTVYLQMNSLKPEDTAVYYCRIPSHGGVYWGQGTQVTVSS
polyreactivity (PSR sort gate): high polyreactivity

QVQLVESGGGLVQAGGSLRLSCAASGRTFYYNAMGWYRQAPGKEREMVADINWSGVRTYYADSVKGRFTISRDNAKNTVYLQMNSLKPEDTAAYYCAAERLLYKHYEEDYWGQGTQVTVSS
polyreactivity (PSR sort gate): low polyreactivity

QVQLVESGGGLVQAGGSLRLSCAASGRTFRRYVMGWYRQAPGKERELVAAIRWTGGSTYYADSVKGRFTISRDNAKNTVYLQMNSLKPEDTAVYYCAASSYIGYGYLGQGTQVTVSS
polyreactivity (PSR sort gate): high polyreactivity

QVQLVESGGGLVQAGGSLRLSCAASGSIFSYNAMGWYRQAPGKERELVAAISSGDYTYYADSVKGRFTISRDNAKNTVYLQMNSLKPEDTAVYYCAAPYVYSRGLSGDYYWGQGTQVTVSS
polyreactivity (PSR sort gate): high polyreactivity

QVQLVESGGGLVQAGGSHRLSCADSGSIFWYNAMGWYRQAPGKEREFVATITWSGDSTYYADSVKGRFTISRDNAKNTVYLQMNSLKPEDTAVYYCAALLDYSVADLYSHHVSRYYYWGQGTQVTVSS
polyreactivity (PSR sort gate): low polyreactivity
